Square brackets hold non-standard residues; d marks the D form. Ends that are not written are not given here. pS = N[C@@H](COP(=O)(O)O)C(=O)O
Molecular target: T1, full-length mouse wild-type Keap1-6xHis (Kelch-like ECH-associated protein 1) (mouse, UniProt Q9Z2X8 1-624)
T1 construct: Keap1, mouse, full-length protein Met1-Cys624; also called full-length Keap1; Keap1 homodimer; not shown: 6xHis, C-terminal, kept
Experiment: NMR titration; competition: preformed complex of 0.05 mM 13C/15N-Neh2 and 0.1 mM Keap1 (1:2) titrated with p62-KIR peptide (phosphorylated 0.25-5 mM, non-phosphorylated 1.0 and 5 mM); 20 mM Tris-HCl pH 8.0, 100 mM NaCl, 4 mM TCEP; read-out is recovery of Neh2 signals
Conditions: both partners purified

T1 sequence (Q9Z2X8 whole entry): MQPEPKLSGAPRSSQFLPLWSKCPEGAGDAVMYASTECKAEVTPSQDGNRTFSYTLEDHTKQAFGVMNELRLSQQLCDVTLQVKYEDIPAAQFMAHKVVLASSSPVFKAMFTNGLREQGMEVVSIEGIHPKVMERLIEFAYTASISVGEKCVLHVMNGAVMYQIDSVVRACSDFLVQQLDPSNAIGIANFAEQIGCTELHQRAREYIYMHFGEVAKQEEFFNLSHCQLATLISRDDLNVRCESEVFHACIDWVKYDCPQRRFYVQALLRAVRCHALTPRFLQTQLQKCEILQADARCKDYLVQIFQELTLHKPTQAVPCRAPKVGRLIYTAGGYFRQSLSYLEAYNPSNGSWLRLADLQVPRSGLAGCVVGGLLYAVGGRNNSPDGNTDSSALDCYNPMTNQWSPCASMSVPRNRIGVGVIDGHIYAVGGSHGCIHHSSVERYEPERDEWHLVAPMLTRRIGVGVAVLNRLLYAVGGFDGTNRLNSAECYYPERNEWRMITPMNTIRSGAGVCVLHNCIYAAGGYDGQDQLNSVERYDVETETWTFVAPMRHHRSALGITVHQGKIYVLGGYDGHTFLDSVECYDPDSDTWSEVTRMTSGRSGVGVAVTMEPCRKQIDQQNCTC

B1: phosphorylated p62-KIR peptide (peptide)
peptide: KEVDP[pS]TGELQSLQ
notes: also called P-p62-KIR; p62-pKIR peptide; source: bought: Toray Research Center
binding result: binds

Reference: paper PMC8121781, “Molecular basis for the disruption of Keap1–Nrf2 interaction via Hinge & Latch mechanism” (Communications Biology, 2021)
